assay: soluble on expression in E. coli; label from the status in PepcDB or PDB records

Sequence | soluble on expression in E. coli
MSLGNDNEKSTTKTSPDKIKFLETSELLTLNTTAEEDFASFTAQNQVFEGLYTLDQKDNFVPGVAGGMPEISADQTKYTIKLKKNAKWSDGSQVTADDFVYAWRRAVDPKTAPGYSALFKDSIKNATEINEGKLPVTDLGVVATDPTTLEITLKKPVPYFISLLSFETFFPQKESFVKKQGDKYGTDSAHTLYNGPFVMKDWGGNITNKWTYAKNDQYWDKDNVKVNEIDVQVAKDINAGVNLYNTNEADRVPLSGDFAKQYKDKKDFQTEKDALISYLRMNQKRDGKATPLANNSLRHALNLAVDKKQLTDRILGDGSFPANGLLPKDFVQNPTTGADFRTDSGDHLVYNKEEALKYWKQAQKELGTDKVTIELLGDDQETTKTIFAYLKAQFEDNLPGVTIKVKNMPSKSATQLTSDGNYDLSLAAWMPDFKDPWTYSSLFLSDYFNNHMSYNSPAYDRLVKSTDTTLATKPEERWNAFVASEKVLLDDDAAILPLYQHQTAVLQRTDITGVQKHAFGSPYSYKFIRVEKEGHHHHHH | soluble
GPGSMTNQSDAIFPNILWAQRAELVLITIPLQDATNVVVEIKEGRVLHFEAEAGGEKYRCDVELFREVVSEESRHAAQPRQIDIQLRKKAPLTESGEEEFAQSRSWLRLTRDKSKNSHIQVDWSRWRDEDEDEDETGGLGMDYNDLMSRMMTQKGLGEDDCMDCGNHTDEDGVGPGADKANHSDSDDYDDLPPLEP | soluble
MEDVFKGIEKEIIKIYKIPERKGRFSNFKFKNKEINELIDALGFKLYLHQVKALKYLYNKKDVVVTTSTASGKSEIFRLAIFDNFLSNPDDRYLLIYPTRALINNQYEKFSMENELFYKITNKRVKAEILTGDVGLEKRREILKDKPNVLFTTPDMLHYQILKNHNNYLWLLKNLKLLVVDELHVYRGVFGTNMVYVFKRLLKLLKRLNNNLQILCLSATLKNPKEFVKLLFNRDFEVVD | not soluble
MNYELLTTENAPVKMWTKGVPVEADARQQLINTAKMPFIFKHIAVMPDVHLGKGSTIGSVIPTKGAIIPAAVGVDIGCGMNALRTALTAADLPENLAELRQAIETAVPHGRTTGRCKRDKGAWENPPFNVDAKWAELEAGYQWLTQKYPRFLNTNNYKHLGTLGTGNHFIEICLDESEQVWIMLHSGSRGIGNAIGTYFIDLAQKEMQDQLETLPSRDLAYFMEGTEYFDDYLRAVAWAQLFASLNRDAMMENVVTALQSITQKTVRQPQTLAMEEINCHHNYVQKEQLFGEEIYVTRKGAVSARAGQYGIIPGSMGAKSFIVRGLGNEESFCSCSHGAGRVMSRTKAKKLFSVEDQIRATAHVECRKDAEVIDEIPMAYKDIDAVMAAQSDLVEVIYTLRQVVCVKGLEHHHHHH | soluble
ASPLMSRTPAFERAAALARAKSAALHIVAFDYVEGLAAAGLLNERALNEMRDGYLASHRQWLEQQAQLIRQSGVEVTTEVVWVMRPLDEIMAHVHEIKPSMVIKDIGHESWLTRAMFTSLDIRLLHDCPVPLHLVANVDH | not soluble
MLSSKFPLLVATDLSPTGKVVLEKAFKLAKRYHKPLFILHVSETTLFAPKIIELTQIEANLCKLLEPFYARYPEVKATLLCRQGGIEESIISAIKETQASLLLIGTSGEDNLLREFFLGSHCRKIIRSSTIPVLVVKNEEESDYSKIFIPTDFSPSSQKMANLTLHLFPHAYISLFHVILKPFEQRLGMYGLDKDEILRYHKDIDNQSASEADHFIEKLKLPSGKHRIKLLMETGVFSAKLCLQKVKEAQSDLIALNTTGNISFFSMDILNQSPKDVLIFKTDSE | not soluble
MLEQIQQALAGDQEQFQALYGQYQPVIYKCMKKYYLKDYDTEDWLQEGRIVFFRTLERFDSEKQASLGKFFKRNFENHVHSLIRHQCAYKRRTDTLSISLEQRLESAGEELVDYLGTAATDPLGQLMIQEKLAAFPTRLSSLEQQILNAYLKGYTLEEIAKVRGGTFSAVRSAYDRAKAKMKYTLENE | not soluble
MKMWQRKTDSSGVIQMDLKKLEGIFEGMLFASGDKVSIEKLSSITGIDKKTVKLVINNMIVKYNNDPSRGITIREINNGYQLCSKPEYYDYIKQLFEPKQRSGLSQAALETLAIIAYNRPITKAKIEQIRGVNSDSAITKLLEKNLIREAGRLDAPGKPVLYETTDEFFRSFGFKSDADLPIFELNDIHETVEINQNSEQEKADTELEKQEKA | not soluble
GMIEKVYEFKRDAKTKVVEKLVNTEHVQINHIVLPRGEQMPKHYSNSYVHLIIIKGEMTLTLEDQEPHNYKEGNIVYVPFNVKMLIQNINSDILEFFVVKAPHPKKLNAPEDPIKCE | soluble
KAQKLNEQHQLILSKLLREEDNKYCADCEAKGPRWASWNIGVFICIRCAGIHRNLGVHISRVKSVNLDQWTAEQIQCMQDMGNTKARLLYEANLPENFRRPQTDQAVEFFIRDKYEKKKYYDKNAIAI | soluble
MGKTSKYVTAAALCSTIVMGGLHASSVSYAATNPTVATLQSDAKLLNDFKKELKKQIDNREENITITYKTKDRNARNIMDELYGEFNKIVDADEYVKYNIASTRYSIKGLPGNYTFTLQVKYRESKEQTQYVKSQAKAIIGSIVKPGMDEHEKVKAIHDYVVKHVSYDTSYQAYTAYEALANRSAVCQGYTLLTYELLKEAGIQNRIVTGTGNGQAHSWNLVNIENKWYHLDTTFDDPVPDKAGRVTYSYFNMSDEQLSKDHDWDRSKYPAATTSYFNELTNKIKAGSSKTATYEQMLKETNLKYLSAQYGADNYSEFKEKLQQQFASKPEKVEVRYKQSMDGTMQDIKKVLNEINWPKGAKRVSYQVAPYSAMADYSLATITFTY | not soluble
GMGQQESTLGGAAGEPRSRGHAAGTSGGPGDHLHATPGMFVQHSTAIFSDRYKGQRVLGKGSFGEVILCKDKITGQECAVKVISKRQVKQKTDKESLLREVQLLKQLDHPNIMKLYEFFEDKGYFYLVGEVYTGGELFDEIISRKRFSEVDAARIIRQVLSGITYMHKNKIVHRDLKPENLLLESKSKDANIRIIDFGLSTHFEASKKMKDKIGTAYYIAPEVLHGTYDEKCDVWSTGVILYILLSGCPPFNGANEYDILKKVEKGKYTFELPQWKKVSESAKDLIRKMLTYVPSMRISARDALDHEWIQTYTKEQISVDVPSLDNAILNIRQFQGTQKLAQAALLYMGSKLTSQDETKELTAIFHKMDKNGDGQLDRAELIEGYKELMRMKGQDASMLDASAVEHEVDQVLDAVDFDKNGYIEYSEFVTVAMDRKTLLSRERLERAFRMFDSDNSGKISSTELATIFGVSDVDSETWKSVLSEVDKNNDGEVDFDEFQQMLLKLCGN | soluble
MSPSIFPPINFLFQNSALLSSFAAQKALSNGHPSGSSLAALEKLSKAFRRPDLHIEKLASSCIDKQKDLKMTNVVPSRNRYGRPYISGRPLLTCDRQKIVECYKKGMKKIHIAKQLGITHSCVSKVLRR | not soluble
MAIKNEIKNCLIMSVNPSYPLPLLCQYIPRYHPQMPTCPLFESKSIITPVFYFNCKRMDRSIDRRLCGHCHQSIGSEALVAMNRLWHPDHFTCSSCKRPIKQTFQAADNHAYCVQCFAQKYNPKCAGCMETLVDTCLLALDRHWHPRCFTCSSCNRPLPNGEFYLVDDKPYDLDCHWAKRLEKREHMERGER | not soluble
MLKSELRKKVLHKRINLSEEERRRLSEKVISNLKSLPEFKKSKKVALYCPIKGEVDLTPLFPEVLKEKELILPKVEGNEISLYRVHSPACLGVGAFGIMEPVEGERVNPEDVDFIAVPGVAFDLEGYRLGFGKGYYDRLLKRVKGLKVGVAYSFQVFERLPRDAWDIPVDVLVTEKNVRRLRDGRSLEHHHHHH | soluble
GSGMKETAAAKFGERQHMDSPDLGTDDDDKAMACSAGPSGFFTRLGRLIKEKAKSDVEKVFSGFSKTRENLAVIDELLLFWNLAETDRVLDELEEALLVSDFGPKITVRIVERLREDIMSGKLKSGSEIKDALKESVLEMLAKKNSKTELQLGFRKPAVIMIVGVNGGGKTTSLGKLAHRLKNEGTKVLMAAGDTFRAAASDQLEIWAERTGCEIVVAEGDKAKAATVLSKAVKRGKEEGYDVVLCDTSGRLHTNYSLMEELIACKKAVGKIVSGAPNEILLVLDGNTGLNMLPQAREFNEVVGITGLILTKLDGSARGGCVVSVVEELGIPVKFIGVGEAVEDLQPFDPEAFVNAIFS | soluble
MADEVIEYKFICPNITIYRESLQHLYTSFAKGLKCVWKTRNTSGQTFFSWEFDLNELKNQGIDGLMGRISVNSDSIDLLNVQIDLKNSTEIIERVVHLYHNNYQYGYNYIPSATFEYSFVPYYAQAEGSLYDQMFLPSHENDAILVIGKKKLHVCKAFLSYHSSFFRAIFSSTFKEGQMSEIPIKDVTYKDFALMLSTIYPDAVFPNDRTAEKLLEMGDRFIIQSVINHVEYHLLHNTKIGNEKLMWMADRYGMSKLLVKSIRQMDSIEKAKALKSSPDYAKLSKEAKEKILDRLMALI | not soluble
MGSDKIHHHHHHMLTKTIIGLDVGRSAVKVVAFANGLYYRLTFPSLVSPAFPINDEGTAARAELETVEVLGKRYFTGDTARLQGGVNMSVGLSHDWTNGPEYLALVASTMKRLAALGVPGLDSPYIVLGTPASLFGRQKEALAQRTQAVVAAEMKVLPQPMGAYCNFFMDARGVPIKDRQKRPDGKNRSWAVVEVGHYTTDFLLMREGNYIERAAVSCEGVHFAAENLVRILAAKDIQATPLTAEEALRTGVIVDFGERRIEAQVAEAVDHVVQKIMTMADSVLSNDVRSLDGVLLAGGGAPILAAGLQKKWPHTVLLENPRMAVADGFCRYGVGQMLRRAMAAEKATA | not soluble
MKTALLLKTKSQPFDPYVEAFEKYGRDTAFIPVLRHKRVHEEQLRDKLKNVRKTYCGLIVTSQRVSETLDEALKQEDETERQKILMETPIFTVGPATDDSIRRLGFQQTHGKDCGRGEVLADLIEEWYTTTKQHKPLLFLVGEKHRDIIQRKLGDDRVDSLIVYATQELENTETQIKDTIRKHPTIDWIVAFSPTSICSLLNTFELKIATIGPTTGDYLKKLGTQPNVVSPAPNPESLASSIVAFDEENSS | soluble
MNHFELYKLKKAGLTNKNILNILDYQKHQEKSLSLRDMAVVSGCKHPSHFIEAYKQLDIQNLKMEFKQFPSISILDKHYPMALKEIYNPPVLLFFQGNLDLLEKPKLAIVGSRRSSDTGVKSVRKILKELGNRFVIVSGLARGIDTSAHLACLKNGGQTIAIIGTGLDRFYPKENRELQTFLGKNHLVLTEYGPGEEALSYHFPERNRIIAGLSRGILVVEAKNRSGSLITCQIGIEEGRDIFAVPGNILDGKSEGCLQLIKEGATCVTSGMDILSEY | not soluble
MSIIGRFKDIMSANINALLDKAENPEKMVDQYLRNMNSDLAKVKAETAAVMAEEQRAKREYHECQADMEKMESYAMKALQAGNESDARKFLERKTSLESKLSELQAANQIAATNAAQMRKMHDKLVSDIGELEARKNMIKAKWAVAKTQERMNKLGASVSSTSQSMSAFGRMEDKVNKALDQANAMAELNSAPQDDMADLSAKYDTGGSSQVDDELAALKAKMMLDKLEHHHHHH | not soluble
MDVIKISPRGYCYGVVDAMVIAKNASLDKSLPRPIYILGMIVHNKHVTDAFEEEGILTLDGSNRLDILKQVDKGTVIFTAHGVSPEVRRIAEEKGLVAIDATCPDVTKTHNLILEMKEKGYHVIYIGKKGHPEPEGAVGVAPEIVHLVETEEDVKNLDIQSEKLIVTNQTTMSQWDVHDIMELVKEKYPHVEYHQEICLATQVRQEAVSEQAKKADLTIVVGDPKSNNSNRLAQVSEEIAGTKAYRIGDLSELKLEWLKGVNTVAVTAGASTPTPITKEVIRFLEQFDHEDPSTWTTEHNIPLKKILPKVKAKN | not soluble

Reference: the DeepSol protein solubility set
